Experiments:
[1] = system: endogenous antioxidant enzymes in hDPC cells; experiment: mRNA levels of endogenous antioxidant enzymes by RT-PCR; format: cell-based, human; details: hDPCs, 1 mM H2O2, CPNE7 recombinant protein 100 ng/mL or Selcopintide 10 ug/mL
Protocol: Cultured hDPCs were seeded into 60 mm culture dishes at a density of 4×10^5 cells, cultured for 24 hours, and then treated with 1 mM H2O2 and treated with the CPNE7 recombinant protein (100 ng/mL) and Selcopintide (10 ug/mL). After 30 minutes and one hour, the mRNA levels of Sod1, 2, and 3, catalase, Gpx7, Hmox1, and Txmd1 were checked.

[2] = system: Human dental pulp cells (hDPCs); experiment: Optical microscope observation of hDPCs after H2O2 and test substance; format: cell-based; details: H2O2 5 uM, 100 uM, 1 mM or 2 mM, 100 ng/ml recombinant CPNE7 protein, 24 hours, compared to control without rCPNE7
Protocol: Human dental pulp cells (hDPCs) were cultured in an α-MEM medium containing 10% FBS under 37° C. and 5% CO2 conditions.
hDPCs were seeded into 35 mm culture dishes at a density of 1×10^5 cells, cultured for 24 hours, treated with H2O2 at a concentration of 5 uM, 100 uM, 1 mM, or 2 mM, respectively, and then treated with 100 ng/ml of a recombinant CPNE7 protein and cultured for 24 hours. After the culture was completed, the cultured cells were washed with PBS, and observed using an optical microscope. At this time, the hDPCs cultured without treating the recombinant CPNE7 protein (rCPNE7) were used as the control.
Cultured hDPC cells were seeded into 6-well plates at a density of 1×10^5 cells per well, cultured for 24 hours, and then treated with 1 mM hydrogen peroxide (H2O2) and treated with Selcopintide at concentrations of 1 μg/mL, 10 μg/mL, 100 μg/mL, and 500 μg/mL for 24 hours. Untreated hDPCs were used as the control.

hDPCs [3] = experiment: Immunofluorescence staining with γ-H2A.X (DNA damage marker); format: cell-based, human; details: 1 mM H2O2, 100 ng/mL CPNE7 recombinant protein, 24 hours, vs 1 mM H2O2 group
Protocol: Cultured hDPCs were seeded into 35 mm culture dishes for a confocal microscope at a density of 1×10^5 cells, cultured for 24 hours, and then treated with 1 mM H2O2 and treated with 100 ng/mL of rCPNE7. After 24 hours, the cells were fixed with 4% paraformaldehyde.
Immunofluorescence staining using a γ-H2A.X antibody was performed on the fixed cells to compare intensity.
Cultured hDPCs were seeded into 35 mm culture dishes for a confocal microscope at a density of 1×10^5 cells, cultured for 24 hours, and then treated with 1 mM H2O2 and treated with 10 μg/mL of Selcopintide. After 24 hours, the cells were fixed with 4% paraformaldehyde.

hDPCs [4] = experiment: Reactive oxygen species level with DCFDA, confocal microscope; format: cell-based, human; details: 1 mM H2O2, 100 ng/mL rCPNE7, imaged for approximately one hour
Protocol: Cultured hDPCs were seeded into 35 mm culture dishes for a confocal microscope at a density of 1×10^5 cells, cultured for 24 hours, and then treated with 1 mM H2O2 and treated with 100 ng/mL of rCPNE7. Then, images were taken for approximately one hour using a confocal microscope.
Cultured hDPCs were seeded into 35 mm culture dishes for a confocal microscope at a density of 1×10^5 cells, cultured for 24 hours, and then treated with 1 mM H2O2 and treated with 10 μg/mL of Selcopintide. Thereafter, images were taken for approximately one hour using a confocal microscope.

hDPCs [5] = experiment: Beta-galactosidase (B-gal) staining, cell aging; format: cell-based, human; details: 1 mM H2O2, 100 ng/mL rCPNE7, 12 or 24 hours, compared to H2O2-only-treated group
Protocol: For this purpose, cultured hDPCs were seeded into 6-well plates at a density of 1×10^5 cells, cultured for 24 hours, and then treated with 1 mM H2O2 and treated with 100 ng/mL of rCPNE7. After 12 or 24 hours, the cells were fixed with 4% paraformaldehyde.
Next, B-gal staining was performed on the fixed cells for 24 hours to compare the degree of cell aging.

B1: CPNE7 recombinant protein: recombinant Copine-7 (CPNE7) protein (protein, UniProt Q9UBL6 1-633, looked up)
Copine-7: MSAGSERGAAATPGGLPAPCASKVELRLSCRHLLDRDPLTKSDPSVALLQQAQGQWVQVGRTEVVRSSLHPVFSKVFTVDYYFEEVQRLRFEVYDTHGPSGFSCQEDDFLGGMECTLGQPAQKWLLQVVMRVSVDVLGPAGHCAKHFLCCTESSHLARTGPSFLLRYDDLCLPWATAGAVRWWTCRGGHTQGWQIVAQKKVTRPLLLKFGRNAGKSTITVIAEDISGNNGYVELSFRARKLDDKDLFSKSDPFLELYRVNDDQGLQLVYRTEVVKNNLNPVWEAFKVSLSSLCSCEETRPLKCLVWDYDSRGKHDFIGEFSTTFEEMQKAFEEGQAQWDCVNPKYKQKRRSYKNSGVVVLADLKFHRVYSFLDYIMGGCQIHFTVAIDFTASNGDPRNSCSLHYINPYQPNEYLKALVSVGEICQDYDSDKRFSALGFGARIPPKYEVSHDFAINFNPEDDECEGIQGVVEAYQNCLPRVQLYGPTNVAPIISKVARVAAAEESTGKASQYYILLILTDGVVTDMADTREAIVRASRLPMSIIIVGVGNADFTDMQVLDGDDGVLRSPRGEPALRDIVQFVPFRELKNASPAALAKCVLAEVPKQVVEYYSHRGLPPRSLGVPAGEASPGCTP
With B1 the “mRNA of endogenous antioxidant enzymes Sod1, 2, and catalase” value ([1]; after 30 minutes, compared to H2O2-only-treated group) was “significantly increased”, the “mRNA of Sod1 and Gpx7, and Hmox1 and Txrnd1” value ([1]; after one hour) was “significantly increased” and the “cell viability (optical microscope)” value [2] was “higher”. For the same molecule, the “accumulation of DNA damage (γ-H2A.X intensity)” value (hDPCs [3]) was “significantly reduced”, the “amount of reactive oxygen species (DCFDA)” value (hDPCs [4]) was “decreased and became significant at approximately one hour” and the “B-gal positive hDPC cells” value (hDPCs [5]) was “significantly reduced”.

— US20260263554A1, “COMPOSITION COMPRISING CPNE7 PROTEIN OR CPNE7 PROTEIN-DERIVED PEPTIDE FOR REMOVING REACTIVE OXYGEN SPECIES IN CELLS” (HYSENSBIO CO., LTD, priority 2022, published 2026)
